# Publication PMC7536876 (bioRxiv, 2020)
# B1: MERS-CoV nsp7 (natural protein)
# chain: SKLTDLKCTSVVLLSVLQQLHLEANSRAWAFCVKCHNDILAATDPSEAFEKFVSLFATLMTFSGNVDLDALASDIFDTPSVLQ
# B2: PEDV nsp7 (natural protein)
# chain: SKLTDIKCSNVVLLGCLSSMNVSANSTEWAYCVDLHNKINLCNDPEKAQEMLLALLAFFLSKNSAFGLDDLLESYFNDNSMLQ
# B3: FIPV nsp7 (natural protein)
# chain: SKLTEMKCTNVVLLGLLSKMHVESNSKEWNYCVGLHNEINLCDDPDAVLEKLLALIAFFLSKHNTCDLSDLIESYFENTTILQ
# Columns and labels:
# Assay in all cases: native MS
# [1] = biological target: HCoV-229E nsp7–8-His6 precursor (HCoV-229E) (UniProt P0C6X1)
# [2] = biological target: PEDV nsp7–8-His6 precursor (PEDV (strain CV777)) (UniProt P0C6Y4)
# [3] = biological target: SARS-CoV nsp7–8-His6 precursor (SARS-CoV (strain Frankfurt-1)) (UniProt P0C6X7)
# [4] = biological target: the molecule itself
Molecule,stoichiometry N [4],further results
HCoV-229E nsp7–8-His6 precursor (from UniProt P0C6X1) (domain or fragment),,stoichiometry N [1]: 2
PEDV nsp7–8-His6 precursor (from UniProt P0C6Y4) (domain or fragment),,stoichiometry N [2]: 2
SARS-CoV nsp7–8-His6 precursor (from UniProt P0C6X7) (domain or fragment),,stoichiometry N [3]: 2
B1,2,
B2,2,
B3,2,
